Assays:
[1] = target: T1, recombinant VEGF MiniTrap (dimer) MT5 (human); test: affinity chromatography on the mAb1 column, repeated run, 19.6 mg MT5 loaded
T1 construct: also called VEGF MiniTrap 5
T1 chain: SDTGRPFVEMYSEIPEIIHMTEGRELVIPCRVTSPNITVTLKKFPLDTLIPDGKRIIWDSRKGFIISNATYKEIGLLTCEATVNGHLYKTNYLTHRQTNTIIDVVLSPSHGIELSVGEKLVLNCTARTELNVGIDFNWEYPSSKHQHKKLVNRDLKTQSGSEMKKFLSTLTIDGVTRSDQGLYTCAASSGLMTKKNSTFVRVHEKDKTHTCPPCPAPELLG

[2] = target: T1, recombinant VEGF MiniTrap (dimer) MT5; test: affinity chromatography on the mAb1 column, repeated run, 19.7 mg MT5 loaded

B1: mAb1 (a mouse anti-VEGFR1 mAb human IgG1) (antibody)
heavy: not shown
light: DIQMTQSPSSLSASLGGKVTITCTTSQDSNNYIAWYQHKPGKGPRLLIHYASTLQPGIPSRFSGSGSGRDYSFSISNLEPEDIATYFCLQYDYLWTFGGGTKLELKRTVAAPSVFIFPPSDEQLKSGTASVVCLLNNFYPREAKVQWKVDNALQSGNSQESVTEQDSKDSTYSLSSTLTLSKADYEKHKVYACEVTHQGLSSPVTKSFNRGEC
**Q.** With B1 as the binder, how does the “Eluate” value [1] read?
**A.** 2 mg

**Q.** And the “Eluate” value [2]?
**A.** 1.8 mg

Source: patent publication US20210206832A1 (Regeneron, published 2021)
